B1: Cif from Photorhabdus asymbiotica (natural protein)
chain: MMREYSKEDDCVKEKTNLAESENVEADNYLEMDCLNYLAKLNGMPERKDHSLNSTKLIDDIIKLHNDRKGNKLLWNDNWQDKIIDRDLESIFKKIDEMVSEFGGIEIYKDIVGENPYDPTEPVCGYSAQNIFKLMTEGEHAVDPVKMAQTGKINGNEFAEKLEQLNSSNNYVALINDHRLGHMFLVDIPSTNREKVGYIYQSDLGDGALPALKIADWLKSRGKESINVNKLKKFLSNEFTMLSESEQKELIAEIFDINKDIANVKLGKIKKDKAVDVYLREYDLNDFISNIEKLKTKLV
notes: also called CifPa; P. asymbiotica Cif; source: E. coli BL21(DE3) or B834(DE3), pET28a, purified (Ni2+-IMAC, Superdex 75)
B2: Cif from Photorhabdus luminescens (natural protein)
chain: SKFKKNSINTIKLIDDIIALHNDPKGNKLLWNDNWQDKIINRDLANIFEKIDESVSELGGLEMYQEMVGVNPYDPTEPVCGLSAQNIFKLMTEGEHAVDPVEMAQTGKIDGNEFAESVDQLSSAKNYVALVNDRRLGHMFLIDIPSNDQETVGYIYQSDLGQGALPPLKIADWLNSRGKDAVSLNKLKKLLSREFNLLSDDEKRALISETLDIHKDVSNVELDRIKRDRGVDIYLTEYDVNNFYENIETLKSKLSNYDKKLSKPK
notes: also called CifPl; source: E. coli BL21(DE3) or B834(DE3), pET28a, purified (Ni2+-IMAC, Superdex 75)

Columns and labels:
[1] = molecular target: cycle inhibiting factor (Cif) from enteropathogenic Escherichia coli (EPEC) (enteropathogenic Escherichia coli (EPEC)); test: SEC
SEC = molecular target: the molecule itself; test: SEC

| Molecule | stoichiometry N [1] | stoichiometry N (SEC) |
| --- | --- | --- |
| cycle inhibiting factor (Cif) from enteropathogenic Escherichia coli (EPEC) (natural protein) | 2 |  |
| B1 |  | 2 |
| B2 |  | 2 |

Reference: article PMC2679143 (PLoS ONE, 2009)
